Experimental data as given in PMC7504044 (International Journal of Molecular Sciences, 2020).

B1: GST–emerin (full-length emerin fused to GST) (natural protein, UniProt P50402 1-254, looked up)
chain: MDNYADLSDTELTTLLRRYNIPHGPVVGSTRRLYEKKIFEYETQRRRLSPPSSSAASSYSFSDLNSTRGDADMYDLPKKEDALLYQSKGYNDDYYEESYFTTRTYGEPESAGPSRAVRQSVTSFPDADAFHHQVHDDDLLSSSEEECKDRERPMYGRDSAYQSITHYRPVSASRSSLDLSYYPTSSSTSFMSSSSSSSSWLTRRAIRPENRAPGAGLGQDRQVPLWGQLLLFLVFVIVLFFIYHFMQAEEGNPF
notes: emerin, full-length; also called pGST–emerin; source: E. coli BL21, purified (glutathione-Sepharose)

What was measured:
[1] = target: emerin (Caenorhabditis elegans) (UniProt O01971); details: cited from earlier work
SPR = target: the molecule itself; experiment: SPR
[2] = target: the molecule itself; experiment: SPR; GST–emerin coupled by EDC–NHS to polyethylene glycol/carboxyl sensor slides (Reichert SR7500DC); five increasing concentrations of analyte in PBST at 40 µL/min, 150 s association, 150 s dissociation, no regeneration

| Molecule | Kd [1] [nM] | koff (SPR) [s⁻¹] | Kd [2] [nM] |
| --- | --- | --- | --- |
| emerin (from UniProt O01971) | 14 | – | – |
| B1 | – | 0.00154 | 1.87 |
